Our source for the Kd values is article PMC8562373 (Biochemistry (Moscow) Supplement. Series B, Biomedical …, 2021).

This assay deals with SARS-CoV-2 protein S receptor-binding domain (RBD), original Wuhan strain (SARS-CoV-2, UniProt P0DTC2 331-524). Put plainly: MST.

In turn, IEEQAKTFLDKFNHQAEDLFYK [h1-Mpa peptide (h1 with Lys31 modified with 3-mercaptopropionic acid)] returned a Kd of over 1 mM.

Molecule DKWSAFLKECSTIAQIYPLQEI [h2-Cys peptide (h2 with Gln76 replaced with Cys76)] gave a Kd of over 1 mM.
